The source of these data is paper PMC7593816.

In experiment [1] the target is HTR2A N107A^2.37 mutant (human) (UniProt P28223).
For experiment [2], the target named is HTR2A R185A^ICL2 mutant (human) (UniProt P28223).

For “Gαq wild-type (GαrLuc8 of the BRET2 assay) (from UniProt P50148 1-359) (natural protein)”, the BRET2 assay, decrease of the efficacy of 25CN-NBOH in experiment [1] and in experiment [2] was 50% throughout.
